IntAct's records for PubMed 20150893

B1: Vacuolar protein sorting-associated protein 27 (Saccharomyces cerevisiae), P40343 (parent)
chain: MSVSTPSELDALIEQATSESIPNGDLDLPIALEISDVLRSRRVNPKDSMRCIKKRILNTADNPNTQLSSWKLTNICVKNGGTPFIKEICSREFMDTMEHVILREDSNEELSELVKTILYELYVAFKNDSQLNYVAKVYDKLISRGIKFPEKLTLSNSPTAMFDSKTPADWIDSDACMICSKKFSLLNRKHHCRSCGGVFCQEHSSNSIPLPDLGIYEPVRVCDSCFEDYDLKRHDDSKKSKKHRHKRKKDRDYSTPEDEEELIRKAIELSLKESRNSASSEPIVPVVESKNEVKRQEIEEEEDPDLKAAIQESLREAEEAKLRSERQKASRQMQPQQPSPQPQPIHSVDLSDEEKDSIYMFASLVEKMKSRPLNEILEDSKLQNLAQRVFASKARLNYALNDKAQKYNTLIEMNGKISEIMNIYDRLLEQQLQSINLSQQYTLPQVPSDPYNYLTENVQNPAESYQTPPLQQLSSHQYKPQQDVSRQQSVKANSSPTTNIDHLKTIDVTPHAQQKPQSHVELAPSDPPYPKEEAEDEGTQAVQDEESSTQESRERPYPVETENGETSINKRPQGITRYDFPTVPARKFVQPESTVPLPASSSEIPIKEERPPSPQEELLIEL
B2: Signal transducing adapter molecule 1 (Homo sapiens), Q92783 (parent)
chain: MPLFATNPFDQDVEKATSEMNTAEDWGLILDICDKVGQSRTGPKDCLRSIMRRVNHKDPHVAMQALTLLGACVSNCGKIFHLEVCSRDFASEVSNVLNKGHPKVCEKLKALMVEWTDEFKNDPQLSLISAMIKNLKEQGVTFPAIGSQAAEQAKASPALVAKDPGTVANKKEEEDLAKAIELSLKEQRQQSTTLSTLYPSTSSLLTNHQHEGRKVRAIYDFEAAEDNELTFKAGEIITVLDDSDPNWWKGETHQGIGLFPSNFVTADLTAEPEMIKTEKKTVQFSDDVQVETIEPEPEPAFIDEDKMDQLLQMLQSTDPSDDQPDLPELLHLEAMCHQMGPLIDEKLEDIDRKHSELSELNVKVMEALSLYTKLMNEDPMYSMYAKLQNQPYYMQSSGVSGSQVYAGPPPSGAYLVAGNAQMSHLQSYSLPPEQLSSLSQAVVPPSANPALPSQQTQAAYPNTMVSSVQGNTYPSQAPVYSPPPAATAAAATADVTLYQNAGPNMPQVPNYNLTSSTLPQPGGSQQPPQPQQPYSQKALL
B3: Class E vacuolar protein-sorting machinery protein HSE1 (Saccharomyces cerevisiae), P38753 (parent)
chain: MSSSAIKIRNALLKATDPKLRSDNWQYILDVCDLVKEDPEDNGQEVMSLIEKRLEQQDANVILRTLSLTVSLAENCGSRLRQEISSKNFTSLLYALIESHSVHITLKKAVTDVVKQLSDSFKDDPSLRAMGDLYDKIKRKAPYLVQPNVPEKHNMSTQADNSDDEELQKALKMSLFEYEKQKKLQEQEKESAEVLPQQQQQHQQQNQAPAHKIPAQTVVRRVRALYDLTTNEPDELSFRKGDVITVLEQVYRDWWKGALRGNMGIFPLNYVTPIVEPSKEEIEKEKNKEAIVFSQKTTIDQLHNSLNAASKTGNSNEVLQDPHIGDMYGSVTPLRPQVTRMLGKYAKEKEDMLSLRQVLANAERSYNQLMDRAANAHISPPVPGPALYAGMTHANNTPVMPPQRQSYQSNEYSPYPSNLPIQHPTNSANNTPQYGYDLGYSVVSQPPPGYEQ

Variants of: B1
Details: with ubb_bovin UBB

effect of a mutation on the interaction | Variant
disrupting interaction | S270D
disrupting interaction | A266Q

Variants of: B2
Details: with ubb_bovin UBB

effect of a mutation on the interaction | Variant
disrupting interaction | W26A

Variants of: B2
Details: with ubb_bovin UBB
Remark: another data set of the same source

effect of a mutation on the interaction | Variant
increasing interaction | D31Q

Variants of: B2
Details: with ubb_bovin UBB
Remark: another data set of the same source

effect of a mutation on the interaction | Variant
decreasing interaction | G27E

Variants of: B2
Details: with ubb_bovin UBB
Remark: another data set of the same source

effect of a mutation on the interaction | Variant
disrupting interaction | L30D

Variants of: B3
Details: with ubb_bovin UBB

effect of a mutation on the interaction | Variant
disrupting interaction | A170Q
disrupting interaction | S174D
